Assay results taken from PMC10397247.
Values belong to the binder of their own block, whether it stands above or below them.

Columns and labels:
[1] = biological target: T1, 4H3277-bN; assay: two-hybrid library CCNG1;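 note: natural log of median RNA to DNA barcode read ratio; higher means stronger binding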
T1 chain: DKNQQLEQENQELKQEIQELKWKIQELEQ

[2] = biological target: T2, 4H348-bN; assay: two-hybrid library CCNG1;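 note: natural log of median RNA to DNA barcode read ratio; higher means stronger binding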
T2 chain: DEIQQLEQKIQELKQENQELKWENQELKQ

[3] = biological target: T3, 4H477-bN; assay: two-hybrid library CCNG1;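 note: natural log of median RNA to DNA barcode read ratio; higher means stronger binding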
T3 chain: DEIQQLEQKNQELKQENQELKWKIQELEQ

[4] = biological target: T4, 4H40-bN; assay: two-hybrid library CCNG1;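 note: natural log of median RNA to DNA barcode read ratio; higher means stronger binding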
T4 chain: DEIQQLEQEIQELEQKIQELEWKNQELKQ

[5] = biological target: T5, 4H3057-bN; assay: two-hybrid library CCNG1;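 note: natural log of median RNA to DNA barcode read ratio; higher means stronger binding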
T5 chain: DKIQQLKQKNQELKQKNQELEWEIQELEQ

[6] = biological target: T6, 4H2915-bN; assay: two-hybrid library CCNG1;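 note: natural log of median RNA to DNA barcode read ratio; higher means stronger binding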
T6 chain: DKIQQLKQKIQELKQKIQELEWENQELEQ

[7] = biological target: T7, 4H319-bN; assay: two-hybrid library CCNG1
T7 chain: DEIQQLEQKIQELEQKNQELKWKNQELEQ

[8] = biological target: T8, 4H741-bN; assay: two-hybrid library CCNG1
T8 chain: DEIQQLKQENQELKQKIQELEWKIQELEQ

[9] = biological target: T9, 4H492-bN; assay: two-hybrid library CCNG1
T9 chain: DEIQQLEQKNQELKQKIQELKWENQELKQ

[10] = biological target: T10, 4H3606-AA; assay: two-hybrid library CCmax; settings: mean of both orientations
T10 chain: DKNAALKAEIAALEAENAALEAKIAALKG

[11] = biological target: T11, 4H2198-AA; assay: two-hybrid library CCmax
T11 chain: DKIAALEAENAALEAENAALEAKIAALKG

[12] = biological target: T12, 4H982-AA; assay: two-hybrid library CCmax; settings: mean of both orientations
T12 chain: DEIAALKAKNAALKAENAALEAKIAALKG

[13] = biological target: T13, 4H3588-AA; assay: two-hybrid library CCmax; settings: mean of both orientations
T13 chain: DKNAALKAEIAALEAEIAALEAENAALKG

[14] = biological target: T14, 4H3631-AA; assay: two-hybrid library CCmax; settings: mean of both orientations
T14 chain: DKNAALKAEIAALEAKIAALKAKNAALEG

[15] = biological target: T15, 4H3162-AA; assay: two-hybrid library CCmax; settings: mean of both orientations
T15 chain: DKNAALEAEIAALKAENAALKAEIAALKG

[16] = biological target: T16, 4H3056-AA; assay: two-hybrid library CCmax; settings: mean of both orientations
T16 chain: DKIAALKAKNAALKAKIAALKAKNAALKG

[17] = biological target: T17, 4H2620-AA; assay: two-hybrid library CCmax; settings: mean of both orientations
T17 chain: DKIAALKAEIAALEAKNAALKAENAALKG

[18] = biological target: T18, 4H3697-AA; assay: two-hybrid library CCmax; settings: mean of both orientations
T18 chain: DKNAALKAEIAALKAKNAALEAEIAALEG

[19] = biological target: T19, 4H3378-AA; assay: two-hybrid library CCmax
T19 chain: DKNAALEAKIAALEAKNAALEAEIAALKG

[20] = biological target: T20, 4H32-AA; assay: two-hybrid library CCmax; settings: mean of both orientations
T20 chain: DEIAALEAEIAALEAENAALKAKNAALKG

[21] = biological target: T21, 4H384-AA; assay: two-hybrid library CCmax; settings: mean of both orientations
T21 chain: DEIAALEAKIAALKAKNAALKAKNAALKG

[22] = biological target: T22, 4H340-AA; assay: two-hybrid library CCmax; settings: mean of both orientations
T22 chain: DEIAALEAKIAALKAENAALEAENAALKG

[23] = biological target: T23, 4H2611-AA; assay: two-hybrid library CCmax; settings: mean of both orientations
T23 chain: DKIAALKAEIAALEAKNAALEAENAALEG

[24] = biological target: T24, 4H697-AA; assay: two-hybrid library CCmax; settings: mean of both orientations
T24 chain: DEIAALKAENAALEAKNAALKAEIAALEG

[25] = biological target: T25, 4H2907-AA; assay: two-hybrid library CCmax; settings: mean of both orientations
T25 chain: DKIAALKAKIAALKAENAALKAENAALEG

[26] = biological target: T26, 4H2648-AA; assay: two-hybrid library CCmax; settings: mean of both orientations
T26 chain: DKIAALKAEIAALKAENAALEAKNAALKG

[27] = biological target: T27, 4H3133-AA; assay: two-hybrid library CCmax; settings: mean of both orientations
T27 chain: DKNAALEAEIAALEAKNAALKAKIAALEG

[28] = biological target: T28, 4H2553-AA; assay: two-hybrid library CCmax; settings: mean of both orientations
T28 chain: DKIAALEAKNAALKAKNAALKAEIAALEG

[29] = biological target: T29, 4H3865-AA; assay: two-hybrid library CCmax; settings: mean of both orientations
T29 chain: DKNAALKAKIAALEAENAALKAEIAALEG

[30] = biological target: T30, 4H3718-AA; assay: two-hybrid library CCmax; settings: mean of both orientations
T30 chain: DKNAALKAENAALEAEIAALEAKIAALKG

[31] = biological target: T31, 4H3413-AA; assay: two-hybrid library CCmax; settings: mean of both orientations
T31 chain: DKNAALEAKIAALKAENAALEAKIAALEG

[32] = biological target: T32, APC8910-AA; assay: two-hybrid library CCmax; settings: mean of both orientations
T32 chain: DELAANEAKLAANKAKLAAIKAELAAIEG

[33] = biological target: T33, APC3645-AA; assay: two-hybrid library CCmax; settings: mean of both orientations
T33 chain: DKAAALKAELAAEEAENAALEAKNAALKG

[34] = biological target: T34, APC2405-AA; assay: two-hybrid library CCmax; settings: mean of both orientations
T34 chain: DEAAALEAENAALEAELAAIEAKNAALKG

[35] = biological target: T35, APC4436-AA; assay: two-hybrid library CCmax; settings: mean of both orientations
T35 chain: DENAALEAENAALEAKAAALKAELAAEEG

[36] = biological target: T36, APC232-AA; assay: two-hybrid library CCmax; settings: mean of both orientations
T36 chain: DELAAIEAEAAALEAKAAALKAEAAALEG

[37] = biological target: T37, APC4011-AA; assay: two-hybrid library CCmax; settings: mean of both orientations
T37 chain: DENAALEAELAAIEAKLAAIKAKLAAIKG

[38] = biological target: T38, APC9096-AA; assay: two-hybrid library CCmax; settings: mean of both orientations
T38 chain: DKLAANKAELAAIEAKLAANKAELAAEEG

[39] = biological target: T39, APC5383-AA; assay: two-hybrid library CCmax; settings: mean of both orientations
T39 chain: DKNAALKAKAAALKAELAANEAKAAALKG

[40] = biological target: T40, APC6108-AA; assay: two-hybrid library CCmax; settings: mean of both orientations
T40 chain: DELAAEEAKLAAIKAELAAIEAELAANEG

[41] = biological target: T41, APC7099-AA; assay: two-hybrid library CCmax; settings: mean of both orientations
T41 chain: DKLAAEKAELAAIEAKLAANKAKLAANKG

[42] = biological target: T42, APC8191-AA; assay: two-hybrid library CCmax; settings: mean of both orientations
T42 chain: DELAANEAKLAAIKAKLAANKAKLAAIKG

[43] = biological target: T43, APC9319-AA; assay: two-hybrid library CCmax; settings: mean of both orientations
T43 chain: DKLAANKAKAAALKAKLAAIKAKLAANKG

[44] = biological target: T44, APC4264-AA; assay: two-hybrid library CCmax; settings: mean of both orientations
T44 chain: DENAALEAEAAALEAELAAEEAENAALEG

[45] = biological target: T45, APC2237-AA; assay: two-hybrid library CCmax
T45 chain: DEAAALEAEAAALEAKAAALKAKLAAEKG

interaction score [1]: -1.62
interaction score [2]: -0.904
interaction score [3]: -2.75
interaction score [4]: 1.52
interaction score [5]: -0.568
interaction score [6]: 0.918
interaction score [7]: -3.47
interaction score [8]: -1.16
interaction score [9]: -1.44
Binder: DKIQQLKQKIQELKQKIQELEWENQELEQ [4H2915-bN]

interaction score [10]: -1.01
interaction score [11]: 0.363
interaction score [12]: 1.67
interaction score [13]: -1.24
interaction score [14]: -1.38
interaction score [15]: -1.38
interaction score [16]: -0.0509
interaction score [17]: -0.832
interaction score [18]: -1.16
interaction score [19]: -1.47
interaction score [20]: -0.333
interaction score [21]: 1.32
interaction score [22]: -1.2
interaction score [23]: -1.63
interaction score [24]: 1
interaction score [25]: -0.303
interaction score [26]: -1.34
interaction score [27]: -0.581
interaction score [28]: 1.96
interaction score [29]: -0.834
interaction score [30]: -0.339
interaction score [31]: -0.996
Binder: DKIAALEAENAALEAENAALEAKIAALKG [4H2198-AA]

interaction score [32]: -1.72
interaction score [33]: -1.41
interaction score [34]: -1.48
interaction score [35]: -2.06
interaction score [36]: -1.19
interaction score [37]: 1.54
interaction score [38]: -1.63
interaction score [39]: -1.52
interaction score [40]: -1.71
interaction score [41]: -1.59
interaction score [42]: -1.41
interaction score [43]: -2.27
interaction score [44]: -1.65
interaction score [45]: -1.33
Binder: DEAAALEAEAAALEAKAAALKAKLAAEKG [APC2237-AA]
